The DeepSol protein solubility set

Test: soluble on expression in E. coli; label from the status in PepcDB or PDB records

Row | Sequence | soluble on expression in E. coli
1 | MSIIIENSGLFSSFQDFGRKGYEHEGVIPSGALDELAHEIANRLVANDKNEATLEMTQKMATIRFTEPALIALTGGNFKAETEHMKIYPNKLYLINEGETLKFNETSRTSRVYLAVGGGFKLEKWLHSASTDFNVEIGGFEGRKLKKGDEIELKHHYSQRHLKLFENLSDKRTTDWGIDGYALSFNYVSDVFHVIKNKGTEDFKKEATRRFTTAEYSVSSKTNRVGMVLDGPQIKAYYDDMPAHQSVKRGTIQVKRDGTPIVLLNDHYTLGSYPQIGTIASYHLTKLAQKPQGSKLKFQFIDIETAEKNLIKYSNWLNQLFHGIEHRMQLEMLKMAGDPLEHHHHHH | not soluble
2 | MSILDGFKEVGESNNGKLTMTVMLESVRFSKNVSAVLGFPKYVKVLVNNDEKKFAIQKCNDKDEYAIRFATKKPGEASAVTLRNVDLLVATQKFFSFPELDDPTKIAFYALDGEYYSDEQVIVFNVEGAKNGTVGKRGPKAGSHRKTSQAKLEHHHHHH | soluble
3 | MSINKIEEDRDISSDLEMKAKMYLVHRMDKAGPLTVKDVRILINKLSKDLQKNQLTLIDCQLIINLVESRFTLVKQATRYLQFFLNKLDGKSINPILIPLSNKPFWQNEPHPFDHYRSTDQLPEKVDIVIIGAGLTGASTAYHLIDAVKKRHLTVVLLDKGNPATEASGRNGGNFELLPENSVGIYSGLVSERFRFLKRCYPHVHPSILQIESEYHASLVFQFALKNRNRFKEIARKERIYCDLAAKGWLYIAHTEEEEQAICDEVTLAAQHGERIYIWSRKKIREQFGINSKFIGRFIPDDGTYNPFKYTCCLIKAAIKSGIKLYTFVKVQQIKSIDTEYHQLKTNMGLLKARQVIVATNAFTSELLPELRAIKPHQSQIAITDSTPDYCKGRLITSEDGPLYLNQPRVRSKNGLVPLLIGAGDDRPMKNPYYRKRSKKVHDLIVQQRDKYFPNLKGRPFSTEWVGALAFTPDQLPAIGYLSPGIIIVMCCNGYGGSYTTAAGLAAAEIALTGKNPPWLPADVFSPKRLLSDKPLFWEDSDSLWRIGKTLCTTLNNLNQLLAESLSYQSMYQPYSTISLLPHGHQEKNCNLDPLRVMHQLAIFRTFAYQELEMLIRYTSPVCLSKGEILFKQGDAGHSCFILIQGKINLYYEHAEGFTSMVAELEAGSVFGQMALFLENKRMATCQATENCSMLEIMVEPCKSLFIQQQALGIKLLRLLNQGVIDALHKLNKRLKYT | not soluble
4 | MSIRSLGYLRIEATDMAAWREYGLKVLGMVEGKGAPEGALYLRMDDFPARLVVVPGEHDRLLEAGWECANAEGLQEIRNRLDLEGTPYKEATAAELADRRVDEMIRFADPSGNCLEVFHGTALEHRRVVSPYGHRFVTGEQGMGHVVLSTRDDAEALHFYRDVLGFRLRDSMRLPPQMVGRPADGPPAWLRFFGCNPRHHSLAFLPMPTSSGIVHLMVEVEQADDVGLCLDRALRRKVPMSATLGRHVNDLMLSFYMKTPGGFDIEFGCEGRQVDDRDWIARESTAVSLWGHDFTVGARG | soluble
5 | MSISSIPSSPSISGSSTSSTAPNISFCYTWTTKLKTRKTADGEATILSISPKFATVHQLISFQWNIRIHATSEMNEEDEEVDYVAVDLYLVDGPVNEVNVMAEVGALEKTSTATLGSLPAGQKEAKTIKMQKGSGCEITDADRECVSKYLKENTRLFEPSTYLDAISPTPRASFLTANYNARVNSKVWKRRSRKRNGRIERRVLSDKEKTKYESKVQMILDEEREKLCDKREMLKEDDGGSRRASLISQFRENQHESVLDDHMFKRILVSCCESCEQRRLSFMCDSRTEDDSEGEDCEDNEEDDGEGGSDDEEDDGEEPHFECDKSDKEHVHDMLANLYFNKVVLPEMEYVEDFVDFLIDAELNDLPVLKRACERYLCSELNSKKDIGTCLLLDLLFNSIVFNLPVMKSMTLTELANRTHEFVDADTLLDQEEFKNLDKRMRTLADRNLVELIEQCVTFRDQKARVRVLPTAESFDISFDLTNQ | not soluble
6 | MSIVLSADHKDALQEFMNISMGRAASKLATLLNLHVTISVPNIRVATEEDMRALQSYAADYYYTRQSFYGGMDGELITLMSRCGCEQVVNDLNHSKGMADGLVSIEESILDISNILSGASLKGLCQQIELKTKIQPPVIFDPTHQPLPILQWRLSLIMEINFLVEKASFSAKTIICFADKELDKVFAHLDELLM | not soluble
7 | MSKCPTVRARAIDCKQGAVRAVRYNVDGNYCVTCGSDKTVKLWNPLKSSLLKTYSGTGNEVLDAASSSDNSQIAAGGADRACTVFDVETGKQLRRWRTHGAQVNAVAFNEESSVVFSGSMDCTMQAFDCRSRSEKPIQIFNESTDGILSIDVNGHEIVAGSADGNYRVYSIRDGNMTVDYMGDSVNSVSFTPDSNCLLAGVMGGIVRLIDKSSGKLLASYKGHQNTEYKLDCRVLQSIEHVASGSEDGFVYVYSLLDSHIVSKLEHPSKVIHSLTAHPKKERLMTAAGQMIYLWVAEDDAEVLGE | not soluble
8 | MSKFFINPEVLEKYSQKLAEHKSSVNHVRDLVAQADVSDESWGIVGLFVKQSYTEMLGDFKDLLKDMSDGLDSASDKMMSATRAYREIEEENRRILVEITRRINAAKIKNITS | not soluble
9 | MSKHTLIRRAVLEKLESVTGAPVTLFDGLPAFVEQEDLPAIAVWLTDAQYTGLMTDEDDWQATLHTAVFLRAQAPDTELDIWMEEKIFPALEEVSGLERLIDTMTPLGYDYQRDSEMATWGMAEITYRITYTN | soluble
10 | MSKLCKEFSLSATVKNISRFVDEEIYYTDTEERFNIPWRMCIAKCDDEFSLGLKCEKNNWDNREWSIETDWTMKLVSHNGKSLMESKKFTFNNSNIFDGGLNTSWDLLESDYVVDDSVVVEAHVKIIKITDLPCDEDEDSKTFLLSSTVRNISSIEEGDDYYTETTIRHNIPWRMQIKRDDGFFGLFLRCEKEDCEDPGKSWSIELDYELRLVSLNGQSLTFSDSDLFIYPSGEGFQKFMRWDDMEEKYMVNGSIIIEARGKITSLEESDDESSSENEEDDSSESHSENDSSSDNLEDEFSECVINVGGQNYTVKKQ | not soluble
11 | MSKLIKGIAASDGVAIAKAYLLVEPDLTFDKNEKVTDVEGEVAKFNSAIEASKVELTKIRNNAEVQLGADKAAIFDAHLLVLDDPELIQPIQDKIKNENANAATALTDVTTQFVTIFESMDNEYMKERAADIRDVSKRVLSHILGVELPNPSMIDESVVIVGNDLTPSDTAQLNKEFVQGFATNIGGRTSASAIMSRSLEIPAIVGTKSITQEVKQGDMIIVDGLNGDVIVNPTEDELIAYQDKRERYFADKKELQKLRDADTVTVDGVHAELAANIGTPNDLPGVIENGAQGIGLYRTEFLYMGRDQMPTEEEQFEAYKEVLEAMGGKRVVVRTLDIGGDKELSYLNLPEEMNPFLGYRAIRLSLAQQDIFRPQLRALLRASVYGKLNIMFPMVATINEFREAKAILLEEKENLKNEGHDISDDIELGIMVEIPATAALADVFAKEVDFFSIGTNDLIQYTLAADRMSERVSYLYQPYNPSILRLVKQVIEASHKEGKWTGMCGEMAGDETAIPLLLGLGLDEFSMSATSILKARRQINGLSKNEMTELANRAVDCATQEEVIELVNNYVK | soluble
12 | MSKLLLVGEPLIRVSPNQFQPLTNACEAQLFFGGSEVNIARTLGGFGLEARLFTALPDNPVGHAFHQFLKQSGVDMSLTAWQGHRVGLYYLENGFGCRASQVYYDRCGSSFSALDKDSLDLAAIFEGISHFHFSGISLALGKKTQDLIEVLVREAKKRDICISFDLNFRSSMIAVADAKRLFSHFAQYADIIFGMEPLLLDSDDFDMFDRKKADTTTIRERLAGLYQRYQLQAIYHTERSNDAQGSNHFKAYAYDRQFYESCEVTTPVLQRVGSGDAFVAGLLYQLLEGNEKQRNLDFAVATASLKCTVAEDQLYHSVQQVEAVLANQRDIQR | not soluble
13 | MSKLQGKKITPMPISAGITVVDLINEYFTAYNSARLREACKLLSQDIFQAGVTVGVSLSGAMTPAGFGVSALAPLIRHGFIDWMISTGANLYHDVHYALGFELFAGSPFLDDVKLREEGTIRIYDIIFGYDVLLETDAFIRKVLQAEPFQKRMGTAEFHYLLGKYVREVEKQLGVQHSCLLATAYEYGVPIYTSSPGDSSIGMNVAALALEGSRLVLDPAIDVNETSAIAYGARETDGKSAAVILGGGSPKNFLLQTQPQIHEVLGLEERGHNFFVQFTDARPDTGGLSGATPAEAVSWGKIDPDELPSTIVCYTDSTIAIPLVTAYVLNQCQARPVKRLYDRREALLETLQKDYLAAKDKPVVKEEGTEEVPSYRCGTPIKR | not soluble
14 | MSKLYFRYGAMNSGKSTHLMQVAHNYEERGMEVIIIKPSTDKKGGDKVVSRLGVERVVDILIDNDENIIETIEDRLEKGRKIDCIIVDEVQFLKAHHIDELFEIAVGKGIPVICYGLRTDFQMNGFEGSERLLLLAHSIEEMKTICRCGRKAILNGRMINGKFTFEGEQVAIDLVDNVEYQSLCGQCYFKYKYGKDSDNLEHHHHHH | soluble
15 | MSKNRQIQGCEVNECLHLDSTKPKSMLNKVKSVHSGFLGEPCVSVCCVCASSPVFLRRYFEWQPFSPREPHVWSTDRPLKVIDLTHLLFTEQMSDCVLGCTPQHCRLQSPVFARDTVLEVEVLLYSSLRFAHCSVDTRRPAFCSL | not soluble
16 | MSKPGQTILVALRKMIASGELAAGERLMEVPTAELFGVSRMPVRMAFRTLEQEGLLVPFGGRGFQVRSISPQEIAGAVDVRGVLEGLAARQMAERGLTQDARDALEACLVQGDALFDKGYVTEDDLEVYHDMNMRLHQVIVAGSGNRAIADALARNDHLPFASVTALAVDRHNLIREYRRFNFAHMQHHAVVDALINGQGARAEALMREHANATLRYADIFGAGVHERMKVIQRPD | not soluble
17 | MSKPLIFAHRGVKGTHPENTMIAFQEAERIGAHGIELDVHLSKDGELVVIHDETVDRTTNGVGLVSEKTVEELQLLDAGSYKDPSFHEAKIPTLREVFIWLSTTNLQLNIELKTDVIHYPNIEEKAVALVREYHLSNQIVFSSFNHDSVSLLAEIAPEIPRAILYDTPLTDPISEAKHREASGLHPNFQLLTKEFVQLAQEQGYVFRPYTINEYKDLQTMIDYGVDVIITDWPARAFELLS | not soluble
18 | MSKQQIGVVGMAVMGRNLALNIESRGYTVSIFNRSREKTEEVIAENPGKKLVPYYTVKEFVESLETPRRILLMVKAGAGTDAAIDSLKPYLDKGDIIIDGGNTFFQDTIRRNRELSAEGFNFIGTGVSGGEEGALKGPSIMPGGQKEAYELVAPILTKIAAVAEDGEPCVTYIGADGAGHYVKMVHNGIEYGDMQLIAEAYSLLKGGLNLTNEELAQTFTEWNNGELSSYLIDITKDIFTKKDEDGNYLVDVILDEAANKGTGKWTSQSALDLGEPLSLITESVFARYISSLKDQRVAASKVLSGPQAQPAGDKAEFIEKVRRALYLGKIVSYAQGFSQLRAASEEYNWDLNYGEIAKIFRAGCIIRAQFLQKITDAYAENPQIANLLLAPYFKQIADDYQQALRDVVAYAVQNGIPVPTFSAAVAYYDSYRAAVLPANLIQAQRDYFGAHTYKRIDKEGVFHTEWLD | soluble
19 | MSKRLPPLNALRVFDAAARHLSFTRAAEELFVTQAAVSHQIKSLEDFLGLKLFRRRNRSLLLTEEGQSYFLDIKEIFSQLTEATRKLQARSAKGALTVSLPPSFAIQWLVPRLSSFNSAYPGIDVRIQAVDRQEDKLADDVDVAIFYGRGNWPGLRVEKLYAEYLLPVCSPLLLTGEKPLKTPEDLAKHTLLHDASRRDWQAYTRQLGLNHINVQQGPIFSHSAMVLQAAIHGQGIALANNVMAQSEIEAGRLVCPFNDVLVSKNAFYLVCHDSQAELGKIAAFRQWILAKAATEQEKFRFRYEQ | not soluble
20 | MSKRLYQQIETLWDYLQLHQQPNVADLILVLGSNDVRVAEHAAKLYHQGLAPYVLFSGGFGRFTQGVFNHNEAETFAAIAKDAGVPEHAILLETQSTNSGENLHFSHQLLVQQARPAKRILLVQKPYMERRAYATFMQQWPESVESVQVTSPAGSFFDYLTSELTSDFVLNAMLGDFERIRDYPALGFQITQPIPEPVMQAYQALLPLKVNLEMSLEHHHHHH | not soluble
